Measured values as given in patent publication US20170100454A1 (VANDERBILT UNIVERSITY, published 2017).
Positions of bridges follow the written chain, without caps; N, C: chain ends. No end group written: not given here. *: point of attachment. Biotin = O=C1N[C@H]2[C@H](CS[C@H]2CCCCC(=O)*)N1

Experiments:
[1] = target: GST-tagged Imp α5 ΔIBB (human) (UniProt P52294); test: BLI (Octet RED96), biotinylated N50 on SA biosensors, GST-tagged Imp α5 ΔIBB at 50-200 nM, 2:1 model; column Imp α5 Minor
[2] = target: GST-tagged Imp α5 ΔIBB (human) (UniProt P52294); test: BLI (Octet RED96), biotinylated N50 on SA biosensors, GST-tagged Imp α5 ΔIBB at 50-200 nM, 2:1 model; column Imp α5 Major
[3] = target: GST-tagged Imp α5 ΔIBB (human) (UniProt P52294); test: BLI, biotinylated N50 on SA biosensors; reference is GST-tagged Imp α1 ΔIBB
GAPDH [4] = target: T1, GAPDH (Homo sapiens, UniProt P04406); test: pull-down: biotinylated peptide in Jurkat T whole cell lysate, streptavidin-coated beads, immunoblot
T1 construct: endogenous, as present in the lysate; also called cellular protein GAPDH

[5] = target: T2, Endogenous human importin alpha 7 (human, UniProt O60684 1-536); test: as above
T2 construct: mature; also called Imp α7

[6] = target: T3, Endogenous human importin beta 1 (human, UniProt Q14974 1-876); test: as above
T3 construct: mature; Endogenous protein in whole cell lysates, and in Hep-G2 cells for the functional rows; also called Imp β1; KPNB1

[7] = target: T4, Endogenous human importin alpha 5 (human, UniProt P52294 1-529 at identity 1.00)); test: competition pull-down at 1.5 mg/mL Jurkat T lysate protein, biotinylated N50 on streptavidin beads as competitor, quantitative immunoblot
T4 construct: Endogenous protein in whole cell lysates, and in Hep-G2 cells for the functional rows; also called Imp α5; KPNA1

[8] = target: Endogenous human importin alpha 1 (human) (UniProt P52292); test: competition pull-down, 1.5 mg/mL Jurkat T cell lysate, 300 µM free N50 against biotinylated N50 on SA beads, quantitative immunoblot
[9] = target: T5, Endogenous human importin alpha 4 (human, UniProt O00505 2-521); test: as above
T5 construct: mature; also called Imp α4
T5 sequence (looked up): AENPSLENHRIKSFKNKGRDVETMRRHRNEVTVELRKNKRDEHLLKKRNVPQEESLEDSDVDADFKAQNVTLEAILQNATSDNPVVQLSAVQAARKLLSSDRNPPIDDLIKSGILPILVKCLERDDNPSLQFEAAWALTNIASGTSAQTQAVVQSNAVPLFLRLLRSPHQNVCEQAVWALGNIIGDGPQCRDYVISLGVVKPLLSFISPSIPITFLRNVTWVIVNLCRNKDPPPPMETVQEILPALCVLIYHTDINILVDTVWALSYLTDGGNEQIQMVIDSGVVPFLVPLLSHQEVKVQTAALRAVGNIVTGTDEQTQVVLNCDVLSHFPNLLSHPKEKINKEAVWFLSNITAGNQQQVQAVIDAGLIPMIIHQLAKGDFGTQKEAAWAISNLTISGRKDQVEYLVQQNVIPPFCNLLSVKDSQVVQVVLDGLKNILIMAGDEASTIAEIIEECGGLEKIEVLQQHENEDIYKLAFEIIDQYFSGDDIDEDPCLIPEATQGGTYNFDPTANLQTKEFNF

[10] = target: T4, Endogenous human importin alpha 5; test: pull-down with biotinylated AR1 and SA beads from Jurkat T cell lysate, immunoblot
[11] = target: T2, Endogenous human importin alpha 7; test: as above
[12] = target: T5, Endogenous human importin alpha 4; test: as above
[13] = target: T6, Endogenous human importin alpha 3 (human, UniProt O00629 2-521); test: as above
T6 construct: mature; also called Imp α3
T6 sequence (looked up): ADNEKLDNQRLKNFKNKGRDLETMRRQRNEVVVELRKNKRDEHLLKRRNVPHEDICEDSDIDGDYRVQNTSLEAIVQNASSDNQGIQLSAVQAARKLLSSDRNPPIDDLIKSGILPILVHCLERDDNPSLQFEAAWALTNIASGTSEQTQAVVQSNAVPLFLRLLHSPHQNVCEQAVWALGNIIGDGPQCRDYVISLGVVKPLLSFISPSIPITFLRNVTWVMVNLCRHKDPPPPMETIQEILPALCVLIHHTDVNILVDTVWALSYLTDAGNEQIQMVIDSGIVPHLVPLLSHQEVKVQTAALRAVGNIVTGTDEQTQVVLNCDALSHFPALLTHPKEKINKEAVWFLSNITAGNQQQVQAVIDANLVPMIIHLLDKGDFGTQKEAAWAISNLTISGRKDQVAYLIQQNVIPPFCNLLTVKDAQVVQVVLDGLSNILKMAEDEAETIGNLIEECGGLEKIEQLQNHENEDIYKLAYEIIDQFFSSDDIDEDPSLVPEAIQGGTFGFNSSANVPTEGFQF

[14] = target: T6, Endogenous human importin alpha 3; test: pull-down: biotinylated peptide in Jurkat T whole cell lysate, streptavidin-coated beads, immunoblot
[15] = target: T2, Endogenous human importin alpha 7; test: pull-down with biotinylated peptide and SA beads from whole cell lysate, immunoblot
[16] = target: T3, Endogenous human importin beta 1; test: as above
GAPDH [17] = target: T1, GAPDH; test: pull-down: biotinylated peptide in Jurkat T whole cell lysate, streptavidin-coated beads, immunoblot [A]

Sequence of GST-tagged Imp α5 ΔIBB (human) (P52294 101-529, stated change not applied): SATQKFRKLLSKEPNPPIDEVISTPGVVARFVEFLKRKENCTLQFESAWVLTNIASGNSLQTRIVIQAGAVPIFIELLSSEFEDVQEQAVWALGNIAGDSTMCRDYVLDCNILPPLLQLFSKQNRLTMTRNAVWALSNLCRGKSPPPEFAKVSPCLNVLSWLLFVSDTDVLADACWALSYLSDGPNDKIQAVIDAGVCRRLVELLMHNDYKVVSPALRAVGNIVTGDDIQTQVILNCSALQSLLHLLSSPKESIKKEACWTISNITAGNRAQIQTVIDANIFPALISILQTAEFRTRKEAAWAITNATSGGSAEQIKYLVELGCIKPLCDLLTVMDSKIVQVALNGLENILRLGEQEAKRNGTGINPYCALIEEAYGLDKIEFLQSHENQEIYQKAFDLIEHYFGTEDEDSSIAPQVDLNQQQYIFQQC
T3 sequence (Q14974 whole entry): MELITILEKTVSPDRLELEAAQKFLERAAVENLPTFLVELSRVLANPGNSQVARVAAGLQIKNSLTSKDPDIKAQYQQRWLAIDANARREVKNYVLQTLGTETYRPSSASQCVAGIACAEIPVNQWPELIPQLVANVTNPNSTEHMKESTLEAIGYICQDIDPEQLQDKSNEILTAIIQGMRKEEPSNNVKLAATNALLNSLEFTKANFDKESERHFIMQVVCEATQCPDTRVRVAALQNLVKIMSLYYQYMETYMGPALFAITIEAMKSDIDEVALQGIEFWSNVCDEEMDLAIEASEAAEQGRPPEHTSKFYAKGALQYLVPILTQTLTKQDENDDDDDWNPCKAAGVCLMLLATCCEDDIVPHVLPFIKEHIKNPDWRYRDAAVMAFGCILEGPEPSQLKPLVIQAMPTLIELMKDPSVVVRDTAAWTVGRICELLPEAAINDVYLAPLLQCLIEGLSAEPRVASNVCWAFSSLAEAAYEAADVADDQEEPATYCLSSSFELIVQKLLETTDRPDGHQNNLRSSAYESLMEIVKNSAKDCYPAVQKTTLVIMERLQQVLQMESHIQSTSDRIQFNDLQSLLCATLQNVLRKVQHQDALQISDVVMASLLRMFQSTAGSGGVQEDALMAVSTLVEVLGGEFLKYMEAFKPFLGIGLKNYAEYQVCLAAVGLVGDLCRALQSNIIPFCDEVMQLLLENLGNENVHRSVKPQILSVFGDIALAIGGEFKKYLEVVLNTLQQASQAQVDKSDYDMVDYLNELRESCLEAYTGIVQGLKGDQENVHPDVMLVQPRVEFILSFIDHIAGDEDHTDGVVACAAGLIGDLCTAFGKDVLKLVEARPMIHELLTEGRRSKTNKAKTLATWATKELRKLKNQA
T1 sequence (P04406 2-335 limits assumed): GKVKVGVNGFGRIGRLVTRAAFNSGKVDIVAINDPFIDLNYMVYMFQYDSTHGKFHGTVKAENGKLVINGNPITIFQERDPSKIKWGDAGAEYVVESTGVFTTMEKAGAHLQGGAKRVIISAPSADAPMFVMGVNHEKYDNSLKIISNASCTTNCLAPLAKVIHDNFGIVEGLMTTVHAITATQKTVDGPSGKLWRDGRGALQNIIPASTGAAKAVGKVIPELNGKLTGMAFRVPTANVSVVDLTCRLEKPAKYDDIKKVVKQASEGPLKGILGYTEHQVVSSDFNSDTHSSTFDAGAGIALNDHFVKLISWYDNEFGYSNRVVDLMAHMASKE
T4 sequence (P52294 1-529 S73N): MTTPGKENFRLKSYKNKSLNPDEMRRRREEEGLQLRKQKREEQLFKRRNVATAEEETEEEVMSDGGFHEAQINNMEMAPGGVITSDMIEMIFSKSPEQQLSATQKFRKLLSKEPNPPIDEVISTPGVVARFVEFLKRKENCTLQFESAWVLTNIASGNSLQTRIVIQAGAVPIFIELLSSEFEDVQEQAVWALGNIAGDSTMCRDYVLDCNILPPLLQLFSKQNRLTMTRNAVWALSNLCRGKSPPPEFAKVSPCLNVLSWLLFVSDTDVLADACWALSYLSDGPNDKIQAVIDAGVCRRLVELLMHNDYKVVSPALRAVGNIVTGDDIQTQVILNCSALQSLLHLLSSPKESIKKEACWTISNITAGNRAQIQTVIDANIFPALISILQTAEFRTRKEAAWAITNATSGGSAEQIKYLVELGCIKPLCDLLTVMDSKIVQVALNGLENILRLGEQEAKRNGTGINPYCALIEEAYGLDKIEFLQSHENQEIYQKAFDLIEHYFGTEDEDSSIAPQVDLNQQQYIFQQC

Biotinylated N50 peptide
Kd [1]: 140 nM | Kd [2]: 73 nM | fold maximum response against Imp α1 [3]: > 20 fold

B1: Biotinylated AR3 peptide (auto-inhibitory region of Imp α3) (peptide)
peptide: VELRKNKRDEHLLKRRNVPHE
modifications: also: biotinylated (position and linker not given here)
binding result (GAPDH [4]): no binding | binding result [5]: no binding | binding result [6]: no binding

B2: Biotinylated AR4 peptide (auto-inhibitory region of Imp α4) (peptide)
peptide: VELRKNKRDEHLLKKRNVPQE
modifications: also: biotinylated (position and linker not given here)
binding result (GAPDH [4]): no binding | binding result [5]: no binding | binding result [6]: no binding

B3: Unlabeled N50 peptide (peptide)
peptide: VQRKRQKLMP
notes: also called free N50; non-biotinylated N50 peptide
IC50 (read off the curve) [7]: ~10000 nM | percent reduction of band intensity [8]: 20% | percent reduction of band intensity [9]: 20%

B4: Biotinylated AR1 peptide (auto-inhibitory region of Imp α1) (peptide)
peptide: VELRKAKKDDQMLKRRNVSSF
modifications: also: biotinylated (position and linker not given here)
binding result (GAPDH [4]): no binding | binding result [6]: no binding | binding result [10]: no binding | binding result [11]: no binding | binding result [12]: no binding | binding result [13]: no binding

B5: Biotinylated AR5 peptide (auto-inhibitory region of Imp α5) (peptide)
peptide: LQLRKQKREEQLFKRRNVATA
modifications: also: biotinylated (position and linker not given here)
binding result (GAPDH [4]): no binding | binding result [5]: no binding | binding result [6]: no binding | binding result [14]: no binding

B6: Biotinylated AR7 peptide (auto-inhibitory region of Imp α7) (peptide)
peptide: IQLRKQKREQQLFKRRNVELI
modifications: also: biotinylated (position and linker not given here)
binding result (GAPDH [4]): no binding | binding result [6]: no binding

B7: Biotinylated cN50.1 peptide (peptide)
peptide: Biotin-GGGGGCVQRKRQKLMPC
modifications: disulfide 6-17 (inferred)
notes: also called cyclized N50
binding result [15]: no binding | binding result [16]: no binding | binding result (GAPDH [17]): no binding
